Laboratory results as given in patent publication US20240383980A1 (VITRUVIAE, published 2024).
Values belong to the binder of their own block, whether it stands above or below them.

Assays:
[1] = target: T1, recombinant human CD3de (Delta epsilon fusion) (human, UniProt P04234 22-105; P07766 23-126); experiment: SPR, Biacore T200; human CD3de immobilized on CM5 chip
T1 construct: It is written here as two chains; also called recombinant human CD3de (delta epsilon subunits)

recombinant human CD25 [2] = target: T2, recombinant human CD25 (human, UniProt P01589 22-213, limits assumed); experiment: SPR (Biacore T200), human CD25 immobilized on CM5 chip, VP100 injected at 3.125-100 nM, 1:1 fit
T2 construct: also called IL-2 receptor subunit a
T2 sequence (looked up): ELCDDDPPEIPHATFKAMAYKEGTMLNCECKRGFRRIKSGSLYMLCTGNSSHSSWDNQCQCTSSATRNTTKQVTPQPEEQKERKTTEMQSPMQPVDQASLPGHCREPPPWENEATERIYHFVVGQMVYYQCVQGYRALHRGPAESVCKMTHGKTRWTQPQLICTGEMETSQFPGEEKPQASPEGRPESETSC

recombinant human CD25 [3] = target: T2, recombinant human CD25; experiment: SPR; human CD25 immobilized on CM5 chip (legend of FIG. 8a)
[4] = target: T3, recombinant cynomolgus CD3de (delta epsilon subunits) (cynomolgus, UniProt Q95LI8 22-105; Q95LI5 22-117); experiment: SPR (Biacore T200), cynomolgus CD3de immobilized on CM5 chip, VP103 injected at 3.125-100 nM, 1:1 fit
Experimental: (§1) The binding affinities of VP103 (chimeric alpaca anti-CD3 VHH F10-human IgG4) and VP104 (Humanized F10A VHH (C55A)-IgG4) for recombinant human CD3de (delta epsilon subunits) and recombinant cynomolgus CD3de (delta epsilon subunits) were assessed by SPR on a Biacore T200 (GE Healthcare). FIGS. 13a and 13b show the SPR sensorgrams for VP103 to human CD3de and cynomolgus CD3de immobilized onto the surface of CM5 sensor chip. FIGS. 14a and 14b show the SPR sensorgrams for VP104 to human CD3de and cynomolgus CD3de immobilized onto the surface of CM5 sensor chip. The data were fit with a 1:1 fitting model. […] These constructs can also be paired with anti-CD25 VP008, which is based on basiliximab, which is known to cross-react with cynomolgus CD25.

[5] = target: T1, recombinant human CD3de (Delta epsilon …); experiment: SPR (Biacore T200), human CD3de immobilized on CM5 chip, VP103 injected at 3.125-100 nM, 1:1 fit
Experimental: as §1

[6] = target: T1, recombinant human CD3de (Delta epsilon …); experiment: SPR, Biacore T200; human CD3de immobilized on CM5 chip; 1:1 fit
Experimental: as §1

[7] = target: T3, recombinant cynomolgus CD3de (delta …); experiment: SPR, Biacore T200; cynomolgus CD3de immobilized on CM5 chip; 1:1 fit
Experimental: as §1

recombinant human CD25 [8] = target: T2, recombinant human CD25; experiment: SPR; human CD25 immobilized on CM5 chip (legend of FIG. 8b)
recombinant human CD25 [9] = target: T2, recombinant human CD25; experiment: SPR (Biacore T200), human CD25 immobilized on CM5 chip, VP101 injected at 3.125-100 nM, 1:1 fit
recombinant human CD25 [10] = target: T2, recombinant human CD25; experiment: SPR, Biacore T200; human CD25 immobilized on CM5 chip; 1:1 fit
recombinant human CD25 [11] = target: T2, recombinant human CD25; experiment: SPR, Biacore T200; human CD25 immobilized on CM5 chip
[12] = target: T1, recombinant human CD3de (Delta epsilon …); experiment: SPR (Biacore T200), human CD3de immobilized on CM5 chip, VP104 injected at 3.125-100 nM, 1:1 fit
Experimental: as §1

[13] = target: T3, recombinant cynomolgus CD3de (delta …); experiment: SPR (Biacore T200), cynomolgus CD3de immobilized on CM5 chip, VP104 injected at 3.125-100 nM, 1:1 fit
Experimental: as §1

T1 sequence (P04234 22-105, stated change not applied, chain 1 of 2): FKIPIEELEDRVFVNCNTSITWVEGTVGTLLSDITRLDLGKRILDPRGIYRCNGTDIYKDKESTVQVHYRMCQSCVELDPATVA
T1 sequence (P07766 23-126, stated change not applied, chain 2 of 2): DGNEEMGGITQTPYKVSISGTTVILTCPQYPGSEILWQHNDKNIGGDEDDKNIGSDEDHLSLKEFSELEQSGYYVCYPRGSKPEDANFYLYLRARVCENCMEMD
T3 sequence (Q95LI8 22-105, stated change not applied, chain 1 of 2): as the sequence (P04234 22-105, stated change not applied, chain 1 of 2) above, with I5V, N15K, I20V, S32T, D33N, I34N, T64A, S74N, V83L counted along it
T3 sequence (Q95LI5 22-117, stated change not applied, chain 2 of 2): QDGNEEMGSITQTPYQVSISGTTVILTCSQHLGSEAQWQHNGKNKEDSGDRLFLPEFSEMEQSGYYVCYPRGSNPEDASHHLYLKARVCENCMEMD

Kd [1]: 12.4 nM
B1: VP002 (huOKT3 VCD3-L3H3 with V-IGG4-A) (antibody, human IgG4 S228P, kappa, F234A L235A, V domains shown)
VH: QVQLVQSGAEVKKPGASVKVSCKASGYTFTRYTMHWVRQSPGQGLEWMGYINPSRGYTNYNQKFQGRVTMTTDKSTSTAYMELSSLRSEDTAVYYCARYYDDHYSLDYWGQGTTVTVSS
VL: EIQLTQSPATLSLSPGERATLSCRASSSVSYMNWYQQKPGQAPRRWIYDTSKLATGIPARFSGSGSGTDYTLTISSLEPEDAAVYYCQQWSSNPFTFGQGTKLEIKR
notes: 4 chain IgG format (huVIT-100), IgG4; also called huOKT3 H3L3; huVIT-100

Kd (recombinant human CD25 [2]): 0.009 nM | koff (recombinant human CD25 [2]): 3.56e-06 s⁻¹ | kon (recombinant human CD25 [2]): 392000 M⁻¹ s⁻¹ | Kd (recombinant human CD25 [3]): 3.8 nM
B2: VP100 (ch7G7-IgG4) (antibody, V domains shown)
VH: EVQLVESGGDLVQPRGSLKLSCAASGFTFSSYGMSWVRQTPDKRLELVATINGYGDTTYYPDSVKGRFTISRDNAKNTLYLQMSSLKSEDTAMYFCARDRDYGNSYYYALDYWGQGTSVTVSS
VL: QIVLSQSPAILSASPGERVTMTCRASSSVSFMHWLQQKPGSSPKPWIYATSNLASGVSARFSGSGSGTSYSLTITRVEAEDAATYYCQQWSSNPPAFGGGTKLEIKR
notes: Chimeric 7G7 on human IgG4

koff [4]: 0.00112 s⁻¹ | kon [4]: 406000 M⁻¹ s⁻¹ | koff [5]: 0.000972 s⁻¹ | kon [5]: 261000 M⁻¹ s⁻¹ | Kd [6]: 3.7 nM | Kd [7]: 2.8 nM
B3: VP103 (chimeric alpaca anti-CD3 VHH F10-human IgG4) (Fc fusion)
chain: QVQLQESGGGLVQAGGSLTLSCAASGFTLDDYAIGWFRQAPGKEREGVSCIRRSDGHTYSADSVKGRFTISSDNAKNTVYLQMNNLKPEDTAVYYCAAGTGWGRYFYAGMDYWGKGTQVTVSSGGGGSGGGGSGGGGSKYGPPCPPCPAPEAAGGPSVFLFPPKPKDTLMISRTPEVTCVVVDVSQEDPEVQFNWYVDGVEVHNAKTKPREEQFNSTYRVVSVLTVLHQDWLNGKEYKCAVSNKGLPSSIEKTISKAKGQPREPQVYTLPPSQEEMTKNQVSLTCLVKGFYPSDIAVEWESNGQPENNYKTTPPVLDSDGSFFLYSRLTVDKSRWQEGNVFSCSVMHEALHNHYTQKSLSLSLGK
notes: VHH-linker-IgG4 Fc chain; also called Alpaca Anti-CD3 nanobody F10 with V-IGG4-A-Fc

Kd (recombinant human CD25 [8]): < 1 nM | Kd (recombinant human CD25 [9]): 0.001 nM | koff (recombinant human CD25 [9]): 1.64e-07 s⁻¹ | kon (recombinant human CD25 [9]): 126000 M⁻¹ s⁻¹ | Kd (recombinant human CD25 [10]): < 0.001 nM
B4: VP101 (hu7G7-IgG4) (antibody, V domains shown)
VH: EVQLVESGGGLVQPGGSLRLSCAASGFTFSSYGMSWVRQAPGKRLELVATINGYGDTTYYPDSVKGRFTISRDNAKNTLYLQMNSLRAEDTAVYYCARDRDYGNSYYYALDYWGQGTLVTVSS
VL: EIVLTQSPATLSLSPGERATLSCRASSSVSFMHWLQQKPGQAPKPLIYATSNLASGIPARFSGSGSGTDYTLTISSLEPEDFAVYYCQQWSSNPPAFGGGTKVEIKR
notes: Humanized 7G7 on human IgG4

Kd (recombinant human CD25 [11]): 1.2 nM
B5: VP008 (VCD25-L2H2 with V-IGG4-B) (antibody, human IgG4 S228P, kappa, F234A L235A, V domains shown)
VH: QVQLVQSGAEVKKPGASVKVSCKASGYSFTRYWMHWVRQPPGQRLEWMGAIYPGNSDTSYSQKFEGRVTITADTSASTAYMELSSLRSEDTAVYYCSRDYGYYFDFWGQGTTVTVSS
VL: EIVLTQSPDFQSVTPKEKVTITCRASSSRSYMQWYQQKPDQSPKRLIYDTSKSASGVPSRFSGSGSGTDYTLTINSLEAEDAATYYCHQRSSYTFGQGTKLEIKR
notes: 4 chain IgG format (huVIT-101), IgG4; also called huBasiliximab H2L2; huVIT-101

Kd [1]: 5.2 nM
B6: VP001 (Teplizumab H:C114S with V-IGG4-A) (antibody, human IgG4 S228P, kappa, F234A L235A, V domains shown)
VH: QVQLVQSGGGVVQPGRSLRLSCKASGYTFTRYTMHWVRQAPGKGLEWIGYINPSRGYTNYNQKVKDRFTISRDNSKNTAFLQMDSLRPEDTGVYFCARYYDDHYSLDYWGQGTPVTVSS
VL: DIQMTQSPSSLSASVGDRVTITCSASSSVSYMNWYQQTPGKAPKRWIYDTSKLASGVPSRFSGSGSGTDYTFTISSLQPEDIATYYCQQWSSNPFTFGQGTKLQITR
notes: 4 chain IgG format (chVIT-100), IgG4 Fc with S228P, F234A, L235A, K322A; also called chVIT-100

Kd [6]: 14.2 nM | koff [12]: 0.0651 s⁻¹ | kon [12]: 4.58e+06 M⁻¹ s⁻¹ | Kd [7]: 13.3 nM | koff [13]: 0.0516 s⁻¹ | kon [13]: 3.89e+06 M⁻¹ s⁻¹
B7: VP104 (Humanized F10A VHH (C55A)-IgG4) (Fc fusion)
chain: EVQLLESGGGLVQPGGSLRLSCAASGFTLDDYAIGWVRQAPGKGREGVSAIRRSDGHTYYADSVKGRFTISSDNSKNTVYLQMNSLRAEDTAVYYCAAGTGWGRYFYAGMDYWGQGTLVTVSSGGGGSGGGGSGGGGSKYGPPCPPCPAPEAAGGPSVFLFPPKPKDTLMISRTPEVTCVVVDVSQEDPEVQFNWYVDGVEVHNAKTKPREEQFNSTYRVVSVLTVLHQDWLNGKEYKCAVSNKGLPSSIEKTISKAKGQPREPQVYTLPPSQEEMTKNQVSLTCLVKGFYPSDIAVEWESNGQPENNYKTTPPVLDSDGSFFLYSRLTVDKSRWQEGNVFSCSVMHEALHNHYTQKSLSLSLGK
notes: also called humanized Anti-CD3 nanobody F10 with free Cys removed and with V-IGG4-A-Fc
